The text below walks through data of patent publication US20060252118.

For data set [1], the target named is T1, Peptide 1 (phosphoserine peptide) H-Val-Pro-Ile-Pro-Gly-Arg-Phe-Asp-Arg-Arg-Val-pSer-Val-Ala-Ala-Glu-NH2.
T1 chain: VPIPGRFDRRVSVAAE

The target of data set [2] is Tyrosine (Tyr) phosphorylated Myelin Basic Protein substrate (33P labeled).
The target in data set [3] is T2, Peptide 3 (phosphotyrosine peptide) H-Glu-Trp-Met-Arg-Glu-Asn-Ala-Glu-pTyr-Leu-Arg-Val-Ala-OH.
T2 chain: EWMRENAEYLRVA

In data set [4] the target is Serine/threonine (Ser/Thr) phosphorylated Myelin Basic Protein substrate (33P labeled).
Serine/threonine (Ser/Thr) phosphorylated Myelin Basic Protein substrate (33P labeled), sequence (P02687 whole entry): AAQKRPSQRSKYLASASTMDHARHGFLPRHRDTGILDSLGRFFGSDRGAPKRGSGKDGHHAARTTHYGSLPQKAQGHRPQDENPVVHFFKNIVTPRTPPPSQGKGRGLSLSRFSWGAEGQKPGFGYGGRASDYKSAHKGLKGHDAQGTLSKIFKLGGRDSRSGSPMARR
Data set [5] addresses T3, Peptide 2 (phosphothreonine peptide) H-Thr-Ala-Asp-Ser-Gln-His-Ser-pThr-Pro-Pro-Lys-Lys-Lys-Arg-Lys-Val-Glu-OH.
T3 chain: TADSQHSTPPKKKRKVE

Tyrosine (Tyr) phosphorylated Myelin Basic Protein substrate (33P labeled), sequence (P02687 whole entry): as above

B1: thermolabile Antarctic phosphatase (TAP), truncated, with N-terminal His-tag (expressed from pEGTAP7.4.1) (protein)
chain: MHHHHHHMKLKKIVFTLIALGLFSCKTTSVLVKNEPQLKTPKNVILLISDGAGLSQISSTFYFKEGTPNYTQFKNIGLIKTSSSREDVTDSASGATAFSCGIKTYNAAIGVADDSTAVKSIVEIAALNNIKTGVVATSSITHATPASFYAHALNRGLEEEIAMDMTESDLDFFAGGGLNYFTKRKDKKDVLAILKGNQFTINTTGLTDFSSIASNRKMGFLLADEAMPTMEKGRGNFLSAATDLAIQFLSKDNSAFFIMSEGSQIDWGGHANNASYLISEINDFDDAIGTALAFAKKDGNTLVIVTSDHETGGFTLAAKKNKREDGSEYSDYTEIGPTFSTGGHSATLIPVFAYGPGSEEFIGIYENNEIFHKILKVTKWNQ
In the case of B1, the “units of TAP required to completely remove the phosphates from 5 µg of the peptide in 10 mins (Cap-HPLC)” value was 2.5 units and 10 units of TAP were required to completely remove the phosphates from the phospho-serine and phospho-threonine peptides respectively in data set [1]; 2.5 units and 10 units of TAP were required to completely remove the phosphates from the phospho-serine and phospho-threonine peptides respectively in data set [5]. Also, the “specific activity (release of 33P from phosphorylated MyBP, TCA-soluble counts)” value in data set [2] is given as “also greater than the specific activity for CIAP”; in data set [4], 1910 nmol/min/mg. Also, in data set [3], the “units of enzyme required to remove all the phosphates from 5 µg of the peptide in 10 mins (Cap-HPLC)” value is “only 0.02 units of enzyme being required to remove all the phosphates from 5 µg of the peptide in 10 mins”.
